Laboratory results taken from PMC6881172, “Allosteric modulation of nucleoporin assemblies by intrinsically disordered regions” (Science Advances, 2019).
Where “and” joins values, the source holds several entries; their conditions need not be identical. Identical values can stand only once.

B3: Nup53 fragment 53CTD (domain or fragment)
chain: RNAEFKVSKNSTSFKNPRRLEIKDGRSLFLRNRGKIHS
B4: Nup53 53core (near-intact Nup53 construct encompassing the N- and C-terminal IDRs and the RRM domain) (domain or fragment)
chain: SDLGTVVFDSNEAPPKTSLADWQKEDGIFSSKTDNIEDPNLSSNITFDGKPTATPSPFRPLEKTSRILNFFDKNTKTTPNTASSEASAGSKEGASTNWDDHAIIIFGYPETIANSIILHFANFGEILEDFRVIKDFKKLNSKNMSKSPSLTAQKYPIYTGDGWVKLTYKSELSKSRALQENGIIMNGTLIGCVSYSPAALKQLASLKKSEEIINNKTSSQTSLSSKDLSNYRKTEGIFEKAKAKAVTSKVRNAEFKVSKNSTSFKNPRRLEIKDGRSLFLRNRGKIHS

Legend:
[1] = biological target: human Nup35 RRM domain (human); test: SEC-MALS; human Nup35 RRM domain at 15 mg/ml on Superdex 200 10/300 GL in the ITC binding buffer, room temperature
Nup53 fragment 53CTD = biological target: B3; test: ITC; single titrations, single-site 1:1 binding model where fitted; 20 mM Hepes pH 7.5, 150 mM NaCl, 0.5 mM TCEP; 15°C; Kap121 150 μM with Nup53 fragments 15 μM; details: both partners purified
[2] = biological target: B4; test: as above; details: both partners purified
[3] = biological target: T1, 53core·Kap121 complex (stoichiometric 53core:Kap121 mixture) (Saccharomyces cerevisiae, UniProt Q03790 1-475; P32337 1-1089); test: ITC; Nic96 titrated into stoichiometric 53core:Kap121 or 53core:HsKapβ1 mixtures; single-site 1:1 model; apparent constants; 15°C; details: both partners purified
[4] = biological target: 53core·HsKapβ1 complex (stoichiometric 53core:HsKapβ1 mixture) (Saccharomyces cerevisiae | human, UniProt Q03790 1-475; Q14974 1-876); test: as above; details: both partners purified
[5] = biological target: T2, Nup53 fragment 53NTD (N-terminal IDR) (Saccharomyces cerevisiae); test: ITC; single titrations, single-site 1:1 binding model where fitted; 20 mM Hepes pH 7.5, 150 mM NaCl, 0.5 mM TCEP; 15°C; Kap121 150 μM with Nup53 fragments 15 μM; details: both partners purified
T2 chain: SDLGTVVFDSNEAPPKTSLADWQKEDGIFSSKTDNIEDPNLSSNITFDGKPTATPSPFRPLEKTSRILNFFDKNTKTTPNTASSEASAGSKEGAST

[6] = biological target: T1, 53core·Kap121 complex (stoichiometric …); test: ITC; Nic96 titrations into 53core:Kap121 mixtures, global analysis with a multiple-equilibrium model that separates monomeric and dimeric 53core·Kap121 complexes; 15°C; details: both partners purified
Kap121 (full-length) [7] = biological target: T3, Kap121 (full-length) (Saccharomyces cerevisiae, UniProt P32337 1-1089); test: ITC; single titrations, single-site 1:1 binding model where fitted; 20 mM Hepes pH 7.5, 150 mM NaCl, 0.5 mM TCEP; 15°C; Kap121 150 μM with Nup53 fragments 15 μM; details: both partners purified
T3 construct: Kap121 (karyopherin), Saccharomyces cerevisiae, full-length; source: E. coli BL21-CodonPlus(DE3)-RIL, purified (HisTrap HP, TEV cleavage, HiTrap Q, Superdex 200); not shown: SUMO-His6, N-terminal, cleaved
T3 sequence (looked up): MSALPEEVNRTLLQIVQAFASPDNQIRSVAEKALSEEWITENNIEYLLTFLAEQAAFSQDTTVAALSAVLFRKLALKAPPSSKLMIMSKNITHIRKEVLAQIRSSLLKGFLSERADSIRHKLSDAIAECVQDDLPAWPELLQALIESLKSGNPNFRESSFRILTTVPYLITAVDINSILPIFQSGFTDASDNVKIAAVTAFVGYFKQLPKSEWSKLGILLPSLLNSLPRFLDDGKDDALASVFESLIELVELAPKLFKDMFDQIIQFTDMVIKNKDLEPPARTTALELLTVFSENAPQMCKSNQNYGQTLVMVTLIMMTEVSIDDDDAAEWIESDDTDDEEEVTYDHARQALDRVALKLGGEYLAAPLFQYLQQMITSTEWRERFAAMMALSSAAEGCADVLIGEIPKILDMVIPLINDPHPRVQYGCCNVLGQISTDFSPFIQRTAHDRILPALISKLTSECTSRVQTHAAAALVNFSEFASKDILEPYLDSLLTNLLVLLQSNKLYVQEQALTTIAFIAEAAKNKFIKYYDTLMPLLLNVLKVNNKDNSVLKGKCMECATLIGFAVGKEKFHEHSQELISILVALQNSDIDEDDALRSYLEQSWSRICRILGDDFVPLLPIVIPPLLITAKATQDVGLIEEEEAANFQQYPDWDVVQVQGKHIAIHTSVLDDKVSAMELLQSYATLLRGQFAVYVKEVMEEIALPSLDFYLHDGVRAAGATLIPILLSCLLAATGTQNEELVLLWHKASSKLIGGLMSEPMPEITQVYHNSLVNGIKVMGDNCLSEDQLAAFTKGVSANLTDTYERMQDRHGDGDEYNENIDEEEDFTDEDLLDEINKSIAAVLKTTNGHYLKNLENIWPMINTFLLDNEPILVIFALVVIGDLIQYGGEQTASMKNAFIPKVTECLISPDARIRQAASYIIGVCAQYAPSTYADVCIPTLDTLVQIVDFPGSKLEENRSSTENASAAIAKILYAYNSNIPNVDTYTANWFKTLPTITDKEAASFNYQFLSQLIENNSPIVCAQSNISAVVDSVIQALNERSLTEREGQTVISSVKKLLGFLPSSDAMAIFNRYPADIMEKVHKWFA

[8] = biological target: the molecule itself; test: ITC; dimer to monomers: concentrated 53core injected in 2-μl increments into buffer, three protein concentrations, monomer-dimer equilibrium model; constant printed for 2A ↔ A2; 15°C
[9] = biological target: the molecule itself; test: as above; remark: listed apart in the source
Kap121 (full-length) [10] = biological target: T3, Kap121 (full-length); test: ITC; forward and reverse titrations with Kap121 at various protein concentrations, global analysis with a multiple-equilibrium model (53core dimerization, monomer constants fixed at the 53C values); 15°C; details: both partners purified
[11] = biological target: T4, Kap121 (full-length) (Saccharomyces cerevisiae), P32337; test: ITC; 53C·Kap121 forward and reverse titrations at various protein concentrations, global analysis with a two-mode binding model (1:1 and 2:1 53C:Kap121); 20 mM Hepes pH 7.5, 150 mM NaCl, 0.5 mM TCEP; 15°C
T4 chain: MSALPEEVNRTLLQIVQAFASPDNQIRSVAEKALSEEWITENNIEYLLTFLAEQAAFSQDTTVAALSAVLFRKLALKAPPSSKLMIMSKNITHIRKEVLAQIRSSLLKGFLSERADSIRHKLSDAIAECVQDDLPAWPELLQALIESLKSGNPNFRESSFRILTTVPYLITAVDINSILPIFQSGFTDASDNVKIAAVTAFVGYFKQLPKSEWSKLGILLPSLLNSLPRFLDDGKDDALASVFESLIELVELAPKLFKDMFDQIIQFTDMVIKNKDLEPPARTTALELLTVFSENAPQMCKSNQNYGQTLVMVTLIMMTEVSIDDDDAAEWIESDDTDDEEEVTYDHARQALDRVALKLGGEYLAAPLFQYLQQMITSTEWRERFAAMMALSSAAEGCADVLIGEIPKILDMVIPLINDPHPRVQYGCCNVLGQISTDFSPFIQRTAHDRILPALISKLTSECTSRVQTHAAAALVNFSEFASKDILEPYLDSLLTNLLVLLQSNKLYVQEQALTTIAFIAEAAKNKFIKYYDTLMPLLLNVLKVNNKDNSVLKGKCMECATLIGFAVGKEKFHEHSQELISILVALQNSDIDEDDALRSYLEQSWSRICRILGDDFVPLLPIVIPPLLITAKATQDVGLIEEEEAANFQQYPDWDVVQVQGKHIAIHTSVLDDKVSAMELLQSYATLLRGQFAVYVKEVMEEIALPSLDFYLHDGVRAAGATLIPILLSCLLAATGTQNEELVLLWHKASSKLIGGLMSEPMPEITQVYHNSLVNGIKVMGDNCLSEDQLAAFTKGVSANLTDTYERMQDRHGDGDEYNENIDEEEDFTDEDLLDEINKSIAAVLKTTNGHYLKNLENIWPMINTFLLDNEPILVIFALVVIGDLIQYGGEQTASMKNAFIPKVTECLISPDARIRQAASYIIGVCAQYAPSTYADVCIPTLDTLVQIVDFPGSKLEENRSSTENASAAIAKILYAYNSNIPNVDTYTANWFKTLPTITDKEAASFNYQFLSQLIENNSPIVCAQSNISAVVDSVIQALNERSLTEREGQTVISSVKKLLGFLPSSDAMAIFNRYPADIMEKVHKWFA

53core·HsKapβ1 complex (stoichiometric 53core:HsKapβ1 mixture), sequence (Q14974 1-442, one chain of several): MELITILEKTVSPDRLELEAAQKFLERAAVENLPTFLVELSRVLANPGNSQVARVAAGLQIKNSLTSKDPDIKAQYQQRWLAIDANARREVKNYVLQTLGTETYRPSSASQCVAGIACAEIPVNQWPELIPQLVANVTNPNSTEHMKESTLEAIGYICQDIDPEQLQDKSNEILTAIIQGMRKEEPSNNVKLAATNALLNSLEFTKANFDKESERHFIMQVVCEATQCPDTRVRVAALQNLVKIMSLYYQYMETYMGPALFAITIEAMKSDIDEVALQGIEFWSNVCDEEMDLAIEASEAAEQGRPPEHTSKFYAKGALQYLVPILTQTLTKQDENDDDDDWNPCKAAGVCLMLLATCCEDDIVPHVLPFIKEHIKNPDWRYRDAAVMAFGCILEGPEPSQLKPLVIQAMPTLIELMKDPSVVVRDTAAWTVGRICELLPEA

human Nup35 RRM domain (domain or fragment)
stoichiometry N [1]: 2

B1: Nup157 fragment 157N (domain or fragment)
chain: MYSTPLKKRIDYDRETFTASASLGGNRLRNRPRDDQNNGKPNLSSRSFLSERKTRKDVLNKYGEAGNTIESELRDVTTHVKISGLTSSEPLQLASEFVQDLSFRDRNTPILDNPDYYSKGLDYNFSDEVGGLGAFTPFQRQQVTNIPDEVLSQVSNTEIKSDMGIFLELNYCWITSDNKLILWNINNSSEYHCIDEIEHTILKVKLVKPSPNTFVSSVENLLIVATLFDIYILTISFNDRTHELNIFNTGLKVNVTGFNVSNIISYERTGQIFFTGATDGVNVWELQYNCSENLFNSKSNKICLTKSNLANLLPTKLIPSIPGGKLIQKVLEGDAGTEEETISQLEVDQSRGVLHTLSTKSIVRSYLITSNGLVGPVLIDAAHIRRGMNALGVKNSPLLSNRAFKIAKIVSISMCENNDLFLAVITTTGVRLYFKGSISRRSIGSLKLDSVKFPPTSISSSLEQNKSFIIGHHPLNTHDTGPLSTQKASSTYINTTCASTIISPGIYFTCVRKRANSGELSKGITNKALLENKEEHKLYVSAPDYGILKNYGKYVENTALLDTTDEIKEIVPLTRSFNYTSTPQGYANVFASQYSAEPLKVAVLTSNALEIYCYRTPDEVFESLIENPLPFIHSYGLSEACSTALYLACKFNKSEHIKSSALAFFSAGIPGVVEIKPKSSRESGSVPPISQNLFDKSGECDGIVLSPRFYGSALLITRLFSQIWEERVFVFKRASKTEKMDAFGISITRPQVEYYLSSISVLADFFNIHRPSFVSFVPPKGSNAITASDAESIAMNALILLINSIKDALSLINVFYEDIDAFKSLLNTLMGAGGVYDSKTREYFFDLKFHDLFTPNAKTKQLIKEILIEVVNANIASGTSADYIVNVLKERFG
Ka (Nup53 fragment 53CTD): 1.6e+06 M⁻¹ | stoichiometry N (Nup53 fragment 53CTD): 1 | Ka [2]: 1.1e+06 M⁻¹ | dH [2]: -10.1 kcal/mol

B2: Nic96 fragment (domain or fragment)
chain: GNNILNSNESRLNVNENNILREKFENYARIVFQFNNSRQANGNFDIANEFISILSSANGTRNAQLLESWKILESMKSKDINIVEVGKQYLEQQFLQYTDNLYKKNMNEGLATNVNKIKSFIDTKLKKADKSWKISNLTVINGVPIWALIFYLLRAGLIKEALQVLVENKANIKKVEQSFLTYFKAYASSKDHGLPVEYSTKLHTEYNQHIKSSLDGDPYRLAVYKLIGRCDLSRKNIPAVTLSIEDWLWMHLMLIKEKDAENDPVYERYSLEDFQNIIISYGPSRFSNYYLQTLLLSGLYGLAIDYTYTFSEMDAVHLAIGLASLKLFKIDSSTRLTKKPKRDIRFANILANYTKSFRYSDPRVAVEYLVLITLNEGPTDVELCHEALRELVLETKEFTVLLGKIGRDGARIPGVIEERQPLLHVRDEKEFLHTITEQAARRADEDGRIYDSILLYQLAEEYDIVITLVNSLLSDTLSASDLDQPLVGPDDNSETNPVLLARRMASIYFDNAGISRQIHVKNKEICMLLLNISSIRELYFNKQWQETLSQMELLDLLPFSDELSARKKAQDFSNLDDNIVKNIPNLLIITLSCISNMIHILNESKYQSSTKGQQIDSLKNVARQCMIYAGMIQYRMPRETYSTLINIDVSL
Ka [3]: 130000 M⁻¹ | dH [3]: -5.2 kcal/mol | Ka [4]: 100000 M⁻¹ | dH [4]: -5.1 kcal/mol | Ka [5]: 700000 M⁻¹ | stoichiometry N [5]: 1 | Ka [2]: 990000 M⁻¹ | dH [2]: -4.4 kcal/mol | KA for the dimeric 53core·Kap121 complexes (A2Bi + C ↔ A2BiC) [6]: 120000 M⁻¹ | KA for the monomeric 53core·Kap121 complex (AB + C ↔ ABC) [6]: 200000 M⁻¹ | dH for the dimeric 53core·Kap121 complexes (A2Bi + C ↔ A2BiC) [6]: -2.5 kcal/mol | dH for the monomeric 53core·Kap121 complex (AB + C ↔ ABC) [6]: -6.7 kcal/mol

B3
Ka (Kap121 (full-length) [7]): 210000 M⁻¹ | fold weaker than the canonical NLS peptide (Kap121 (full-length) [7]): ~45 fold | stoichiometry N (Kap121 (full-length) [7]): 1

B4
stoichiometry N [8]: 2 | Ka [9]: 10000 M⁻¹ | dH [9]: 6.5 kcal/mol | KA of the 53core dimer with one Kap121 (A2 + B ↔ A2B) (Kap121 (full-length) [10]): 5.6e+07 M⁻¹ | dH of A2 + 2B ↔ A2B2 (Kap121 (full-length) [10]): -1.3 kcal/mol | dH of A2 + B ↔ A2B (Kap121 (full-length) [10]): 16.3 kcal/mol

B5: Nup53 C-terminal IDR (53C) (domain or fragment)
chain: KKSEEIINNKTSSQTSLSSKDLSNYRKTEGIFEKAKAKAVTSKVRNAEFKVSKNSTSFKNPRRLEIKDGRSLFLRNRGKIHS
modifications: not checked
K of the 2:1 mode (2A + B ↔ A2*B) [11]: 1.9e+11 M^-2 | KA of the 1:1 mode (A + B ↔ AB) [11]: 4.2e+06 M⁻¹ | KA per IDR binding (square root of the 2:1 constant) [11]: 440000 M⁻¹ | dH of the 1:1 mode (A + B ↔ AB) [11]: -2.7 kcal/mol | dH of the 2:1 mode (2A + B ↔ A2*B) [11]: 4.2 kcal/mol | stoichiometry N [11]: 2 and 1
